Tested on: MS2 coat protein
Experiment: apparent KD of MS2 coat protein; designed switch direction (-1 OFF switch, 1 ON switch): -1; higher = weaker reporter binding
Outline: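 Designed RNA switches sharing common flanks were transcribed on Illumina chips by stalled E. coli RNA polymerase. They were titrated with SNAP-549-labelled MS2 coat protein, from 0.7 or 1.5 nM doubling to 3 µM, in Tris-HCl pH 7.5 buffer with KCl, MgCl2, BSA, DTT, tRNA and Tween-20. Titrations ran without input, with 200 uM small-molecule ligand, or with an oligonucleotide input. The apparent KD of each design is the median over its clusters, after curve-fitting of normalised cluster fluorescence.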

[1] = Eterna round: R95, input ligand: microRNA oligo, concentration not stated
[2] = Eterna round: R95, input ligand: FMN 200 uM
[3] = Eterna round: R95, input ligand: none

Sequence	apparent KD of MS2 coat protein (input ligand: FMN 200 uM)	apparent KD of MS2 coat protein (input ligand: none)	apparent KD of MS2 coat protein [1]	other results
CUUUUAAAGCAACAUCAGCACAUGAGGAUCACCCAUGUGGCGUCCCGACUGUGCACGAUUGCUCGUCUUGACUGUAU [Eternabot (L1) Solution 25] (Eterna round: R97, puzzle: Sensor, turn-off variant 1)	179 nM	185 nM	–	–
CUUUUGGCAGGAUAUGCUUUUUUUGACAUGAGGAUCACCCAUGUGAUGCAGUUUGGGUUUGCAGAAGGGCCUGAGU [JR_E5_Sub035] (puzzle: Exclusion 5)	–	–	101 nM	–
CUUUUGUGAGGAUAUCAGGUGUGCUAGCGUACUGGUACAUCUGAGAAGGCACAUGAGGAUCACCCAUGUUCCUU [JL-ex4-3.18 Brourd mod] (puzzle: Exclusion 4)	–	–	13.5 nM	–
CUUUUGUGAGGAUAUCAGUAGUAAAAAAAUAAAAUUACUACUGAGAAGGUACAUGAGGAUCACCCAUGUUCCUC [salish99_ex4_r3_031] (puzzle: Exclusion 4)	–	–	15.1 nM	–
CUUUUGUGAGGAUAUCAGUAGUAAAAAAUUAAAAUUACUACUGAGAAGGCACAUGAGGAUCACCCAUGUUCCUC [salish99_ex4_r3_021] (puzzle: Exclusion 4)	–	–	37.7 nM	–
CUUUUGUGAGGAUAUCAGUAGUAAUACAAUAGUAUUACUACUGAGAAGGUACAUGAGGAUCACCCAUGUUCCUC [Ex4 344 Omei mod 4] (puzzle: Exclusion 4)	–	–	17.9 nM	–
CUUUUGUGAGGAUAUUAGUAGUAAAUAAUUAAAAUUACUACUGAGAAGGCACAUGAGGAUCACCCAUGUUCCUC [salish99_ex4_r3_056] (Eterna round: R96, puzzle: Exclusion 4)	489 nM	37.4 nM	–	apparent KD of MS2 coat protein (input ligand: microRNA oligo, concentration not stated): 33.2 nM
CUUUUGUGAGGAUAUUAGUAGUAAAUAAUUAAAAUUACUACUGAGAAGGCACAUGAGGAUCACCCAUGUUCCUC [salish99_ex4_r3_056] (puzzle: Exclusion 4)	–	–	35.2 nM	–
CUUUUGUGAGGAUAUUAGUAGUAAAUGAAUAAAAUUAUUACUGAGAAGGCACAUGAGGAUCACCCAUGUUCCUU [Mat - Exclusion 4 - Eli Mod - D19] (Eterna round: R97, puzzle: Exclusion 4)	83.6 nM	14.6 nM	–	–
GAAAAGAUAGGAUAUACAAGAAGAAAAGAAAAGAAAAGAAAACAUGAGGAUCACCCAUGUAGAAGGAUCAAAAG [Default title] (puzzle: Exclusion 2)	–	–	13.5 nM	apparent KD of MS2 coat protein [2]: 15 nM; apparent KD of MS2 coat protein [3]: 15.5 nM
GAAAAGCAUGUGAGGAUAUGCACACCGGACCGGUGGUAGAAGGCACAUGAGGAUCACCCAUGUGACCAAGAAUA [BmEX4 A.4] (Eterna round: R97, puzzle: Brourd's mod of Exclusion 4)	19.7 nM	10.6 nM	–	–
GAAAAGGUAGGAUAUACGAAAAAAAAGUGUAGAAAAAAAACACAUGAGGAUCACCCAUGUAGAAGGACCAAAAG [salish99_ex2_r3_069] (puzzle: Exclusion 2)	–	–	34.8 nM	apparent KD of MS2 coat protein [2]: 27 nM; apparent KD of MS2 coat protein [3]: 32.6 nM
GAAAAGUGAGGAUAUGGUAAAAGAAGAAGAAGAAGAAAACUCCAGAAGGCACAUGAGGAUCACCCAUGUGAAAG [salish99_ex4_r3_008] (puzzle: Exclusion 4)	–	–	17.1 nM	apparent KD of MS2 coat protein [2]: 17 nM; apparent KD of MS2 coat protein [3]: 16.5 nM
GAAACCAGAGGAUAUGCGAAUAAAUAAAACUUUUUUUUUUAACAUGAGGAUCACCCAUGUAGAAGGCUGCAAAU [Ex2 #34] (Eterna round: R97, puzzle: Exclusion 2)	42.2 nM	32.7 nM	–	–
GAAUAGGCAGGAUAUACAUGAGGAUCACCCAUGUGCAACCGAAAGGAACGUCCGAAAGGUAGAAGGGCCUAAAC [ChP 13.04.2015 #9] (puzzle: Exclusion 3)	–	–	17.9 nM	apparent KD of MS2 coat protein [2]: 73.7 nM; apparent KD of MS2 coat protein [3]: 19.6 nM
GAAUAGGUAGGAUAUACGAAAAAAAAGGGUAGAAAAAAAACACAUGAGGAUCACCCAUGUAGAAGGACCAAAAG [salish99_ex2_r3_089] (puzzle: Exclusion 2)	–	–	31.6 nM	apparent KD of MS2 coat protein [2]: 68.6 nM; apparent KD of MS2 coat protein [3]: 29.6 nM
GAAUAUAAGCAAAGAUCCUACAUGAGGAUCACCCAUGUGCUCGUCUUAUAAAGUACUAUCACGAAAGUGAUAGUACA [Mat - Sensor v3 - turn-off var 1 - Eli Mod - D82] (puzzle: Sensor v3, turn-off variant 1)	–	–	25.1 nM	apparent KD of MS2 coat protein [2]: 89.9 nM; apparent KD of MS2 coat protein [3]: 135 nM
GAAUGAGAGCAGGAUAUCUUAAAAAUGUAUAAAAGAGAAGGGCUCACAUGAGGAUCACCCAUGUGGUCCUAGAU [jl-ex6-4.69 jandersonlee mod] (Eterna round: R97, puzzle: Exclusion 6)	572 nM	40.5 nM	–	–
GAAUGAGAGCAGGAUAUCUUAUAAAUGUAUGAAAGAGAAGGGCUCACAUGAGGAUCACCCAUGUGGUCCUAGAU [jl-ex6-4.76 jandersonlee mod] (Eterna round: R97, puzzle: Exclusion 6)	645 nM	35.2 nM	–	–
GACAAAGGAGGAUAUACAAUGUCCUGGUCUAACCCGAUGGCACAUGAGGAUCACCCAUGUAGAAGGCCUUUGCG [Eternabot (L1) Solution 4] (Eterna round: R97, puzzle: Exclusion 2)	39 nM	17.6 nM	–	–
GACAAGGGAGGAUAUGCACAAGGGAUAUCUGACAUGCCGAUACAUGAGGAUCACCCAUGUAGAAGGCCCGAAUA [Oneser] (puzzle: Exclusion 2)	–	–	12.5 nM	–
GACAGGGCAGGAUAUCGAAUUCCUCACAUGAGGAUCACCCAUGUUCAGUCGAAAGACUGACGAGAAGGGCCGUGUC [Omei Ex5 E1] (Eterna round: R97, puzzle: Exclusion 5)	1020 nM	2290 nM	–	–
GACAGGGCAGGAUAUCGAGAUCCGCACAUGAGGAUCACCCAUGUUCGGUCGAAAGACCGACGAGAAGGGCCGUGUC [Omei Ex5 E5] (Eterna round: R97, puzzle: Exclusion 5)	651 nM	869 nM	–	–
GACCCACAUGAGGAUCACCCAUGUCAGGAUAUGCAGUUGGAUGCGUCAGAUUUCCAUAGCAGAAGGGAUCUGGC [Eternabot (Original) Solution 14] (Eterna round: R97, puzzle: Exclusion 1)	16.5 nM	18.2 nM	–	–
GACGCUAAAGGAUAUACAUGAGGAUCACCCAUGUUGAGGAAGGUUAGAUGAGGAGUAAGUAGAAGGUUAGGCGA [JR_Exclu3_Sub092] (puzzle: Exclusion 3)	–	–	33.6 nM	–

From the supplement of paper PMC9170038
